The record followed here is the supplement of paper PMC7125110.

B1: glmS ribozyme (parent)
chain: AUAAAAGCGCCAGAACUACAGAAAUGUAGUUGACGAGGAGGAGGUUUAUCGAAUUUUCGGCGGAUGCCUCCAAA

Conditions in all cases: with glucosamine-6-phosphate
Variants of B1 are the subject of data set [1]. The experiment in a line: self-cleavage kobs at 40 uM GlcN6P; higher = faster cleavage; RNA array. The gist of the method:
(§1)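 Over ~14 h at 37 °C, tiles were imaged as glucosamine-6-phosphate (40 μM to 10 mM) in HEPES/KCl/Mg(OAc)2 buffer flowed across sequenced MiSeq chips. The chips carried barcoded ribozyme variants transcribed in situ by E. coli RNA polymerase and tracked with a hybridised Cy3 probe. After normalisation to baseline and to non-cleaving reference variants, one- or two-exponential decay fits of per-tile medians gave kobs. kcat and KM followed from weighted Michaelis–Menten fits across concentrations.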

Data set [2] covers variants of B1. The data set is described as follows: self-cleavage kobs at 160 uM GlcN6P; higher = faster cleavage; RNA array. Summed up: as §1
Data set [3] covers variants of B1. The experiment in a line: self-cleavage kobs at 640 uM GlcN6P; higher = faster cleavage; RNA array. The gist of the method: as §1
In data set [4] the parent is B1. The data set is described as follows: self-cleavage kobs at 2500 uM GlcN6P; higher = faster cleavage; RNA array. The gist of the method:
as §1

Data set [5] covers variants of B1. The data set is described as follows: self-cleavage kobs at 10000 uM GlcN6P; higher = faster cleavage; RNA array. The gist of the method:
as §1

± gives the standard error. Variants at the floor of the assay were thinned out. Where only a bound is given, the exact number is not on record here.

On to A12C G41U, for which the “self-cleavage kobs at 40 uM GlcN6P” value with glucosamine-6-phosphate [1] was found to be 5.28e-05 ± 7e-06 s⁻¹. Besides, the “self-cleavage kobs at 160 uM GlcN6P” value with glucosamine-6-phosphate [2] was 7.73e-05 ± 8.9e-06 s⁻¹. The “self-cleavage kobs at 640 uM GlcN6P” value with glucosamine-6-phosphate [3] was 0.00028 ± 6.1e-05 s⁻¹. For the same variant, the “self-cleavage kobs at 2500 uM GlcN6P” value with glucosamine-6-phosphate [4] worked out at 0.00034 ± 6.3e-05 s⁻¹. Besides, the “self-cleavage kobs at 10000 uM GlcN6P” value with glucosamine-6-phosphate [5] is 0.00129 ± 0.00013 s⁻¹.
In the case of G7U G32U, the “self-cleavage kobs at 40 uM GlcN6P” value with glucosamine-6-phosphate [1] is less than 1e-05 s⁻¹. Besides, the “self-cleavage kobs at 160 uM GlcN6P” value with glucosamine-6-phosphate [2] is less than 1e-05 s⁻¹. Besides, the “self-cleavage kobs at 640 uM GlcN6P” value with glucosamine-6-phosphate [3] is less than 1e-05 s⁻¹. Besides, in the data set with glucosamine-6-phosphate [4], the “self-cleavage kobs at 2500 uM GlcN6P” value is less than 1e-05 s⁻¹. For the same variant, the “self-cleavage kobs at 10000 uM GlcN6P” value with glucosamine-6-phosphate [5] is less than 1e-05 s⁻¹.
For the variant C11A C61A C67A, the “self-cleavage kobs at 40 uM GlcN6P” value in the data set with glucosamine-6-phosphate [1] was determined as 0.000153 ± 4.5e-05 s⁻¹. The “self-cleavage kobs at 10000 uM GlcN6P” value with glucosamine-6-phosphate [5] worked out at 7.62e-05 ± 2.5e-05 s⁻¹.
Consider C11G A36G C67U, for which, in the data set with glucosamine-6-phosphate [1], the “self-cleavage kobs at 40 uM GlcN6P” value was less than 1e-05 s⁻¹.
C11U A33G G37U C71A: the “self-cleavage kobs at 40 uM GlcN6P” value with glucosamine-6-phosphate [1] is less than 1e-05 s⁻¹. In addition, the “self-cleavage kobs at 10000 uM GlcN6P” value with glucosamine-6-phosphate [5] is less than 1e-05 s⁻¹.
On to U30A G63U, for which the “self-cleavage kobs at 40 uM GlcN6P” value in the data set with glucosamine-6-phosphate [1] was less than 1e-05 s⁻¹. In addition, the “self-cleavage kobs at 160 uM GlcN6P” value with glucosamine-6-phosphate [2] is less than 1e-05 s⁻¹. Moreover, the “self-cleavage kobs at 10000 uM GlcN6P” value in the data set with glucosamine-6-phosphate [5] was less than 1e-05 s⁻¹.
C8U G9A C16U C50U A52U: in the data set with glucosamine-6-phosphate [1], the “self-cleavage kobs at 40 uM GlcN6P” value is less than 1e-05 s⁻¹. In addition, in the data set with glucosamine-6-phosphate [4], the “self-cleavage kobs at 2500 uM GlcN6P” value was less than 1e-05 s⁻¹. The “self-cleavage kobs at 10000 uM GlcN6P” value in the data set with glucosamine-6-phosphate [5] was less than 1e-05 s⁻¹.
With C50A G51C, in the data set with glucosamine-6-phosphate [1], the “self-cleavage kobs at 40 uM GlcN6P” value is less than 1e-05 s⁻¹. Also, the “self-cleavage kobs at 10000 uM GlcN6P” value in the data set with glucosamine-6-phosphate [5] is less than 1e-05 s⁻¹.
For the variant A39G C68U, the “self-cleavage kobs at 40 uM GlcN6P” value with glucosamine-6-phosphate [1] came to 0.000529 ± 5e-05 s⁻¹. Moreover, in the data set with glucosamine-6-phosphate [2], the “self-cleavage kobs at 160 uM GlcN6P” value was 0.000783 ± 0.00025 s⁻¹. The “self-cleavage kobs at 640 uM GlcN6P” value with glucosamine-6-phosphate [3] turned out to be 0.00223 ± 0.0005 s⁻¹. The “self-cleavage kobs at 2500 uM GlcN6P” value with glucosamine-6-phosphate [4] worked out at 0.00387 ± 0.0012 s⁻¹. Further, the “self-cleavage kobs at 10000 uM GlcN6P” value with glucosamine-6-phosphate [5] amounted to 0.0156 ± 0.003 s⁻¹.
In the same order, the values of A14G G41A are 0.000282 ± 3.2e-05 s⁻¹, 0.000481 ± 7.9e-05 s⁻¹, 0.00125 ± 0.00022 s⁻¹, 0.00232 ± 0.00052 s⁻¹ and 0.00645 ± 0.0016 s⁻¹.
For C11U G32C, the “self-cleavage kobs at 40 uM GlcN6P” value with glucosamine-6-phosphate [1] is less than 1e-05 s⁻¹. Moreover, the “self-cleavage kobs at 160 uM GlcN6P” value with glucosamine-6-phosphate [2] was less than 1e-05 s⁻¹. For the same variant, the “self-cleavage kobs at 640 uM GlcN6P” value with glucosamine-6-phosphate [3] was less than 1e-05 s⁻¹. The “self-cleavage kobs at 10000 uM GlcN6P” value with glucosamine-6-phosphate [5] is less than 1e-05 s⁻¹.
On to A15G C34A, for which the “self-cleavage kobs at 40 uM GlcN6P” value with glucosamine-6-phosphate [1] was less than 1e-05 s⁻¹. The “self-cleavage kobs at 160 uM GlcN6P” value in the data set with glucosamine-6-phosphate [2] was less than 1e-05 s⁻¹. The “self-cleavage kobs at 640 uM GlcN6P” value in the data set with glucosamine-6-phosphate [3] is less than 1e-05 s⁻¹.
As for A15G U65C U69A, in the data set with glucosamine-6-phosphate [1], the “self-cleavage kobs at 40 uM GlcN6P” value is less than 1e-05 s⁻¹.
For the variant G59C C68U, the “self-cleavage kobs at 40 uM GlcN6P” value in the data set with glucosamine-6-phosphate [1] was less than 1e-05 s⁻¹.
Turning to A39U U69C, the “self-cleavage kobs at 40 uM GlcN6P” value in the data set with glucosamine-6-phosphate [1] was determined as 0.000261 ± 7.1e-05 s⁻¹. In addition, the “self-cleavage kobs at 2500 uM GlcN6P” value with glucosamine-6-phosphate [4] amounted to 0.0075 ± 0.0032 s⁻¹. The “self-cleavage kobs at 10000 uM GlcN6P” value with glucosamine-6-phosphate [5] came out at 0.0107 ± 0.0039 s⁻¹.
On to C10G C68A, for which the “self-cleavage kobs at 40 uM GlcN6P” value with glucosamine-6-phosphate [1] is less than 1e-05 s⁻¹.
Consider G51C G59U, for which the “self-cleavage kobs at 40 uM GlcN6P” value with glucosamine-6-phosphate [1] is less than 1e-05 s⁻¹. In addition, the “self-cleavage kobs at 160 uM GlcN6P” value with glucosamine-6-phosphate [2] was less than 1e-05 s⁻¹. Also, the “self-cleavage kobs at 640 uM GlcN6P” value with glucosamine-6-phosphate [3] was less than 1e-05 s⁻¹.
Take A6G G7U: in the data set with glucosamine-6-phosphate [1], the “self-cleavage kobs at 40 uM GlcN6P” value is less than 1e-05 s⁻¹. Moreover, the “self-cleavage kobs at 160 uM GlcN6P” value with glucosamine-6-phosphate [2] was less than 1e-05 s⁻¹. In the data set with glucosamine-6-phosphate [4], the “self-cleavage kobs at 2500 uM GlcN6P” value is less than 1e-05 s⁻¹. Also, the “self-cleavage kobs at 10000 uM GlcN6P” value in the data set with glucosamine-6-phosphate [5] was less than 1e-05 s⁻¹.
With C10U U31A A53C U55G, the “self-cleavage kobs at 40 uM GlcN6P” value with glucosamine-6-phosphate [1] was less than 1e-05 s⁻¹.
Same read-out and setting: the figure for C10U U45A G51U C67A is less than 1e-05 s⁻¹.
Take G41C U47C C68U: the “self-cleavage kobs at 40 uM GlcN6P” value with glucosamine-6-phosphate [1] was less than 1e-05 s⁻¹. Moreover, the “self-cleavage kobs at 640 uM GlcN6P” value in the data set with glucosamine-6-phosphate [3] was less than 1e-05 s⁻¹.
On to A15G A52G C58G, for which, in the data set with glucosamine-6-phosphate [1], the “self-cleavage kobs at 40 uM GlcN6P” value was less than 1e-05 s⁻¹. The “self-cleavage kobs at 10000 uM GlcN6P” value with glucosamine-6-phosphate [5] was 8.04e-05 ± 2.1e-05 s⁻¹.
For G37A U45C C58U C61G, the “self-cleavage kobs at 40 uM GlcN6P” value in the data set with glucosamine-6-phosphate [1] is less than 1e-05 s⁻¹.
G41C C67G: the “self-cleavage kobs at 40 uM GlcN6P” value with glucosamine-6-phosphate [1] is less than 1e-05 s⁻¹. Also, the “self-cleavage kobs at 160 uM GlcN6P” value with glucosamine-6-phosphate [2] was less than 1e-05 s⁻¹. Besides, the “self-cleavage kobs at 640 uM GlcN6P” value with glucosamine-6-phosphate [3] was less than 1e-05 s⁻¹. For the same variant, in the data set with glucosamine-6-phosphate [4], the “self-cleavage kobs at 2500 uM GlcN6P” value was less than 1e-05 s⁻¹. The “self-cleavage kobs at 10000 uM GlcN6P” value with glucosamine-6-phosphate [5] was less than 1e-05 s⁻¹.
